To fix the notation:
B1: Nucleotide exchange factor SIL1 (Homo sapiens), Q9H173 (parent)
chain: MAPQSLPSSRMAPLGMLLGLLMAACFTFCLSHQNLKEFALTNPEKSSTKETERKETKAEEELDAEVLEVFHPTHEWQALQPGQAVPAGSHVRLNLQTGEREAKLQYEDKFRNNLKGKRLDINTNTYTSQDLKSALAKFKEGAEMESSKEDKARQAEVKRLFRPIEELKKDFDELNVVIETDMQIMVRLINKFNSSSSSLEEKIAALFDLEYYVHQMDNAQDLLSFGGLQVVINGLNSTEPLVKEYAAFVLGAAFSSNPKVQVEAIEGGALQKLLVILATEQPLTAKKKVLFALCSLLRHFPYAQRQFLKLGGLQVLRTLVQEKGTEVLAVRVVTLLYDLVTEKMFAEEEAELTQEMSPEKLQQYRQVHLLPGLWEQGWCEITAHLLALPEHDAREKVLQTLGVLLTTCRDRYRQDPQLGRTLASLQAEYQVLASLELQDGEDEGYFQELLGSVNSLLKELR

Consider one variant from IntAct's records for PubMed 24473200.

In the assay the parent is B1. To be noted: with bip_human HSPA5, P11021.
bip_human HSPA5, P11021, sequence (P11021 whole entry): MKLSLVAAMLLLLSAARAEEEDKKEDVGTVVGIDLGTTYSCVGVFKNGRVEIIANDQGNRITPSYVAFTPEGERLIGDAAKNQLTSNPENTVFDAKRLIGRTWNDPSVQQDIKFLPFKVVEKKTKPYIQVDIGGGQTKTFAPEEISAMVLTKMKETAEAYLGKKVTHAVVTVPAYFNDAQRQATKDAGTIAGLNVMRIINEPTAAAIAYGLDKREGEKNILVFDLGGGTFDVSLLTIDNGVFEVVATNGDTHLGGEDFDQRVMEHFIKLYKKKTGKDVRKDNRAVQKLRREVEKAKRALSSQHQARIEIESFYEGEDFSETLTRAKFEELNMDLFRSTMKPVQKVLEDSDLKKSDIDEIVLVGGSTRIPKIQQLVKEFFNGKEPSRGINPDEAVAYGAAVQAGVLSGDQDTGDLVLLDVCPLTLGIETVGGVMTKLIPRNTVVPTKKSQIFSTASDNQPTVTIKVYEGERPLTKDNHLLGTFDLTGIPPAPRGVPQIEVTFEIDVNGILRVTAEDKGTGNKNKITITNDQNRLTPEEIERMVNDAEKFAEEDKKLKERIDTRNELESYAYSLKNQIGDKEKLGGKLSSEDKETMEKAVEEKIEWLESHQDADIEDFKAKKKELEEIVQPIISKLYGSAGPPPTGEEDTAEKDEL
For MAPQSLPSSRMAPLGMLLGLLMAACFTFCLSHQNLKEFALTNPEKSSTKETERKETKAEEELDAEVLEVFHPTHEWQALQPGQAVPAGSHVRLNLQTGEREAKLQYEDKFRNNLKGKRLDINTNTYTSQDLKSALAKFKEGAEMESSKEDKARQAEVKRLFRPIEELKKDFDELNVVIETDMQIMVRLINKFNSSSSSLEEKIAALFDLEYYVHQMDNAQDLLSFGGLQVVINGLNSTEPLVKEYAAFVLGAAFSSNPKVQVEAIEGGALQKLLVILATEQPLTAKKKVLFALCSLLRHFPYAQRQFLKLGGLQVLRTLVQEKGTEVLAVRVVTLLYDLVTEKMFAEEEAELTQEMSPEKLQQYRQVHLLPGLWEQGWCEITAHLLALPEHDAREKVLQTLGVLLTTCRDRYRQDPQLGRTLASLQAEYQVLASLELQDGEDEGYFQELLGSVNSLPKELR [L457P], the “effect of a mutation on the interaction” value is reported as “decreasing interaction strength”.
